Common to all, as to assay: fluorescence polarisation; 37 °C, after the 25 °C reading ramped over 7 min to 37 °C and 2 min incubation; unlabeled Rb^P against 1.5 nM TMR-E2F1^TD or 7.5 nM TMR-E7^LxCxE; 25 mM Tris pH 8.0, 200 mM NaCl, 1 mM DTT, 0.1% Tween-20; apparent Kd
Common to all, as to conditions: both partners purified
For orientation: Polarisation of emitted light reports the rotation of a fluorescent probe.

In one test the target is T1, Rb^P R763T (human, UniProt P06400 380-788, R763T).
T1 construct: also called variant 75
T1 sequence (looked up): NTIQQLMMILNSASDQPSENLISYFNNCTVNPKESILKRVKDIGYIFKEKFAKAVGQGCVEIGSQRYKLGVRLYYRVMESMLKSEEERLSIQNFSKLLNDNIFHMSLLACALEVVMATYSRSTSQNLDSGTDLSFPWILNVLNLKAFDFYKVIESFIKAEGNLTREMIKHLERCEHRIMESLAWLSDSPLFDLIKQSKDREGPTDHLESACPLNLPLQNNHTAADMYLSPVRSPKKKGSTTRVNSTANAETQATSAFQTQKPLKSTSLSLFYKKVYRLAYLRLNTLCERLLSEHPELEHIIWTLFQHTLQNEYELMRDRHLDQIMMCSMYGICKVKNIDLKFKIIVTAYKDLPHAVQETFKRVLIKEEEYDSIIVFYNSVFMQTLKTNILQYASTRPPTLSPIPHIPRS

Another test addresses T2, Rb^P M704V (human, UniProt P06400 380-788, M704V).
T2 construct: also called variant 66
T2 sequence (looked up): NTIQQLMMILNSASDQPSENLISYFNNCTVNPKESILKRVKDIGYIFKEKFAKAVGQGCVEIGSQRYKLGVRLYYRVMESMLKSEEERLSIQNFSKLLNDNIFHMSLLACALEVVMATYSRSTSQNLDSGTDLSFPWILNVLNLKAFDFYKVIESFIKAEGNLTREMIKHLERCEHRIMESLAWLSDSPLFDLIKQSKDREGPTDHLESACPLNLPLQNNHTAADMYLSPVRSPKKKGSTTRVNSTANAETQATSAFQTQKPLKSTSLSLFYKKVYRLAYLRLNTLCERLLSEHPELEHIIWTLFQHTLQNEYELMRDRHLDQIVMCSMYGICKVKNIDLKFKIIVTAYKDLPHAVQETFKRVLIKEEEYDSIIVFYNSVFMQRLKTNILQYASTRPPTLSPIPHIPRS

Another test concerns the target T3, Rb^P D697E (human, UniProt P06400 380-788, D697E).
T3 construct: also called variant 62
T3 sequence (looked up): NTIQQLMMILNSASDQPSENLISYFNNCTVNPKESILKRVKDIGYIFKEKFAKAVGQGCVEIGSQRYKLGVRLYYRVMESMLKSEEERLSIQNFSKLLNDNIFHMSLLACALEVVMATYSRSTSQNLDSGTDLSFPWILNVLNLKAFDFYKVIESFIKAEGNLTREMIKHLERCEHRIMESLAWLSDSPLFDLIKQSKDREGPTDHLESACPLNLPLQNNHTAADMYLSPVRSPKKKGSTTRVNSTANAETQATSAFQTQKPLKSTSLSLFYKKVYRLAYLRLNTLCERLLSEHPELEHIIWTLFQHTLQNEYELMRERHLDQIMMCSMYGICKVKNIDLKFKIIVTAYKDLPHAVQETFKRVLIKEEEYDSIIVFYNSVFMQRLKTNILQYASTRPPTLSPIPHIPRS

A further test concerns the target T4, Rb^P M761L (human, UniProt P06400 380-788, M761L).
T4 construct: also called variant 74
T4 sequence (looked up): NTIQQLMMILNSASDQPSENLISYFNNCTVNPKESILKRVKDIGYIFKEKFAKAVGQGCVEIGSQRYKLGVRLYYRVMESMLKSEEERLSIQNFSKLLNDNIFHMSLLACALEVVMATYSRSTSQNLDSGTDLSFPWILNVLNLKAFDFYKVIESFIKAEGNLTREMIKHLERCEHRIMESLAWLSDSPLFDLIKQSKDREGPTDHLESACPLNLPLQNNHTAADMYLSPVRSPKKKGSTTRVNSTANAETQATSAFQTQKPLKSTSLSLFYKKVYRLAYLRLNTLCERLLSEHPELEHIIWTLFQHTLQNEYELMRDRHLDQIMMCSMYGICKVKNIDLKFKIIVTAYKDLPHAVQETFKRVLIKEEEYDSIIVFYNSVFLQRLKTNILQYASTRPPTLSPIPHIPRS

Another test has as its target T5, Rb^P T620M (human, UniProt P06400 380-788, T620M).
T5 construct: also called variant 40
T5 sequence (looked up): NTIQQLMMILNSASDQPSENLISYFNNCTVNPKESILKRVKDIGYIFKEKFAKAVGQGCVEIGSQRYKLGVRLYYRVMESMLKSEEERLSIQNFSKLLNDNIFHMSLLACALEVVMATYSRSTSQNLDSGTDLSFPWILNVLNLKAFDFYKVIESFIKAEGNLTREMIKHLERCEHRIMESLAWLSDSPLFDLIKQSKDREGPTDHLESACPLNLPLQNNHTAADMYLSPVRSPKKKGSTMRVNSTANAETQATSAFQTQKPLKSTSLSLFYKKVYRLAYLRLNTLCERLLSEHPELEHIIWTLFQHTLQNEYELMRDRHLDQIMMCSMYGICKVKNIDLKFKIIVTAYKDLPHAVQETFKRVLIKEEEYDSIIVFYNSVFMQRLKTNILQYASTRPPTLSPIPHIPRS

No end group written: not given here. TMR = tetramethyl rhodamine dye

B1: TMR-E2F1^TD, peptide of the E2F1 transactivation domain (peptide)
peptide: {TMR}-GEGIRDLFDCDFGDLTPLD
notes: also called E2F^TD; source: synthetic peptide, bought: GenScript
In the case of B1, the Kd in the test with Rb^P R763T was 59 nM; in the test with Rb^P M704V it was 129 nM; in the test with Rb^P D697E, 129 nM; with Rb^P M761L it was 68 nM; in the test with Rb^P T620M it was 59 nM.

B2: TMR-E7^LxCxE, LxCxE peptide of the E7 oncoprotein from HPV (peptide)
peptide: DLYCYEQLN
modifications: also: TMR label, position not given here
notes: source: synthetic peptide, bought: GenScript
As to B2, the Kd with Rb^P R763T turned out to be 35 nM; with Rb^P M704V, 51 nM; with Rb^P D697E, 46 nM; with Rb^P M761L, 5 nM; with Rb^P T620M it was 15 nM.

Source of the values: PMC11931385, “Structural and functional analysis of cancer-associated missense variants in the retinoblastoma protein pocket domain” (The Journal of Biological Chemistry, 2025).
